Test results: the supplement of paper PMC12764529
± gives the half width of the 95% confidence interval.

What was measured:
[1] = folding stability dG unfold from trypsin proteolysis; higher = more stable
Experimental: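 Folding stability of de novo designed mini-proteins (<80 aa, no Cys; designed by TrROS, TrMRF, ProteinMPNN and the joint model) was measured by cDNA display proteolysis with trypsin and chymotrypsin. Each protease was used at 11 concentrations in a threefold dilution series plus a no-protease condition. K50 was inferred by Bayesian fitting of sequencing counts, and dG unfold was derived against a sequence-predicted unfolded-state K50 (Tsuboyama et al. method). Sequences shown include variable-length N-terminal GS-type padding (SAGGSAGG...) inside a display construct carrying a PA tag. Rows were kept only if the AF2 dimer inter-PAE was >15, to exclude likely homo-oligomers.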

[2] = folding stability dG unfold (combined trypsin and chymotrypsin); higher = more stable
Summary of the method: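 How resistant each design was to proteolysis was captured as K50, inferred by Bayesian fitting of sequencing counts. Unfolding free energy was then derived relative to a sequence-predicted unfolded-state K50 and a shared folded-state K50, per protease or combined. Digestion used trypsin and chymotrypsin at 11 threefold-diluted concentrations plus a no-protease condition, on mini-proteins under 80 residues without cysteine in a PA-tagged cDNA display construct. Designs were kept only when AlphaFold2 dimer inter-PAE was above 15.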

Which “folding stability dG unfold” value [1] does the source give for “SAGGSAGGSPVTVETSSQTSTVPLPTGPTVTLVTNTTTTTRPVPLSTPRSSSTTTVTTTVTVVSSAGGSAGG [r6_224_JUSTAS]” here?
Its value is -0.311 ± 0.11 kcal/mol.

What about the “folding stability dG unfold” value [2] of the same sequence?
The value was less than -1 kcal/mol.

What does the source list for “SAGGSAGGSSDTRTIPIPIDGYPVRISIDMNGSQTIEFPNPENKDDLKDLIPPGYNITEIEPWSAGGSAGGS [r12_9_TrROS]”?
folding stability dG unfold [1]: -0.999 ± 0.36 kcal/mol; folding stability dG unfold [2]: < -1 kcal/mol

With “SAGGSAGGSSPDIEVEITVDAPPGARILGTDGKPVEIPASNPKVKIIVIEGDNSFFIKTEPVGSAGGSAGGS [r12_338_TrMRF]” as the sequence, how does the “folding stability dG unfold” value [1] read?
Its value is -0.362 ± 0.22 kcal/mol.

What about the “folding stability dG unfold” value [2] of the same sequence?
The value was less than -1 kcal/mol.

With “SAGGSAGGSSPEIPLPPEIAEEIEVPGSGTTVLLHPSTGLVLYKPPPEELAVGRYDPSTGVLESAGGSAGGS [r12_420_JUSTAS]” as the sequence, how does the “folding stability dG unfold” value [1] read?
Its value is 0.985 ± 0.051 kcal/mol.

What about the “folding stability dG unfold” value [2] of the same sequence?
Its value is 0.475 ± 0.15 kcal/mol.

Which “folding stability dG unfold” value [1] does the source give for “SAGGSAGGSSPIVVEEEPDRYVITIPPSQPELVEEVLEKLGLPAEDITRTLIPEGLVRYEVPGSAGGSAGGS [r12_493_JUSTAS]” here?
Its value is -0.419 ± 0.28 kcal/mol.

And the “folding stability dG unfold” value [2]?
The value was less than -1 kcal/mol.

What does the source list for “SAGGSAGGSTPPLTTETEAVIEIEGGLYSVKVTQLPPDETLMTIPANGMIIRETPDKIEIRPESAGGSAGGS [r12_737_JUSTAS]”?
folding stability dG unfold [1]: -0.374 ± 0.28 kcal/mol; folding stability dG unfold [2]: < -1 kcal/mol

With “SAGGSAGGSVEIKSITTVTDPNSSANPTTITVKRDPAKGVLGEEVKAIAKALEEAGYPTTFGTSAGGSAGGS [r12_172_JUSTAS]” as the sequence, how does the “folding stability dG unfold” value [1] read?
The value was -0.769 ± 0.17 kcal/mol.

And the “folding stability dG unfold” value [2]?
The value was less than -1 kcal/mol.

Which “folding stability dG unfold” value [1] does the source give for “SAGGSAGGYVEVTIMIPPDDLDEIKEIAEPFGFTSVETERVPDNPMVVVKIEVKIPKEDDKDNKSAGGSAGG [r6_273_TrROS]” here?
The value was 0.427 ± 0.054 kcal/mol.

What about the “folding stability dG unfold” value [2] of the same sequence?
Its value is -0.139 ± 0.2 kcal/mol.

For “SAGGSALPPDQRLVVIDLGREPGVTPDEPVEVPEELIEKIKKENPNVKLVEVKHEGDKVTLYIAIKSAGGSA [r2_383_JUSTAS]”, which “folding stability dG unfold” value [1] is on record?
The value was -0.0124 ± 0.48 kcal/mol.

And the “folding stability dG unfold” value [2]?
The value was less than -1 kcal/mol.

What does the source list for “SAGGSAMIKTYEEEVELTVPGGSTPVKVRVKTIEKIEKDEKGNLKTEVVEVKIETPENAPAVALLLSAGGSA [r15_258_JUSTAS]”?
folding stability dG unfold [1]: -0.327 ± 0.21 kcal/mol; folding stability dG unfold [2]: -0.857 ± 0.51 kcal/mol

For “SAGGSAMPPGQPWKIKRTIPFKDPNGWKITIYRMPDDGHVWVRWEPPNGGEREVWMPAEEAEDALKSAGGSA [r15_2_TrROS]”, which “folding stability dG unfold” value [1] is on record?
The value was 0.902 ± 0.23 kcal/mol.

And the “folding stability dG unfold” value [2]?
Its value is 0.307 ± 0.58 kcal/mol.

For “SAGGSAMVPEDEGLIVVERDVPFDKAEEFVEEVIEELGIPPEKVKKIELFEEKVEDGPALRALVYLSAGGSA [r15_934_TrMRF]”, which “folding stability dG unfold” value [1] is on record?
Its value is -0.294 ± 0.32 kcal/mol.

What about the “folding stability dG unfold” value [2] of the same sequence?
The value was less than -1 kcal/mol.

With “SAGGSAPGKKTIKIEIIFPFPEEQAKEFADYIAKGIADETGHDPENIDIKVEVHVFDPANNEPRPFSAGGSA [r15_918_TrROS]” as the sequence, how does the “folding stability dG unfold” value [1] read?
The value was -0.236 ± 0.2 kcal/mol.

And the “folding stability dG unfold” value [2]?
The value was -0.511 ± 0.25 kcal/mol.

Which “folding stability dG unfold” value [1] does the source give for “SAGGSASMITSTLTDPSTGTSSTLPTEVLQKLLDENPPDSNLVLPTGPKPVTVKVEPEKGLATFTGSAGGSA [r15_350_JUSTAS]” here?
The value was 0.153 ± 0.039 kcal/mol.

And the “folding stability dG unfold” value [2]?
Its value is -0.989 ± 0.29 kcal/mol.

For “SAGGSASYSSLKITIIDTGTTTTVPPGATTTPTVVKLPDNKTAIITTTTPPDGTTATTVELFDNDKSAGGSA [r15_559_JUSTAS]”, which “folding stability dG unfold” value [1] is on record?
Its value is -0.717 ± 0.12 kcal/mol.

And the “folding stability dG unfold” value [2]?
Its value is less than -1 kcal/mol.

For “SAGGSATIKEGQVITRTVTDPSTGKEYEVEITIKKVTKYPASPEGILREEYEIEVKKSPKVSPLKLSAGGSA [r15_248_JUSTAS]”, which “folding stability dG unfold” value [1] is on record?
Its value is 0.112 ± 0.12 kcal/mol.

And the “folding stability dG unfold” value [2]?
Its value is less than -1 kcal/mol.

What does the source list for “SAGGSAVVEIPIPPSSLDVRALIVPTDGPLTTVLVEETLPDGTPRVRLYRYDPARGEVRPLAEELPSAGGSA [r2_402_JUSTAS]”?
folding stability dG unfold [1]: -0.671 ± 0.17 kcal/mol; folding stability dG unfold [2]: < -1 kcal/mol

With “SAGGSAYGKKKNDPDGNPKYEMEPQPTIEVPVTIPIFDNNNNPLLEIPIPASMPISDINDEIKDLFSAGGSA [r15_309_TrROS]” as the sequence, how does the “folding stability dG unfold” value [1] read?
Its value is -1.57 ± 0.7 kcal/mol.

And the “folding stability dG unfold” value [2]?
The value was less than -1 kcal/mol.

What does the source list for “SAGGSENPNDPRPVVPVGVAVVDIEIHGHPDMTEEERLAAVEEAVEALEGLEVEHPDGHPTILLAGSAGGSA [r2_149_TrMRF]”?
folding stability dG unfold [1]: -0.161 ± 0.071 kcal/mol; folding stability dG unfold [2]: < -1 kcal/mol

Which results are given for “SAGGSGMRKFSPEEAKKKEVVITIPVVTYSPSLKFSPVTVPVTVSGPVTSDEEAKEKVEKAVKELASAGGSA [r2_244_JUSTAS]”?
folding stability dG unfold [1]: -1.03 ± 0.48 kcal/mol; folding stability dG unfold [2]: < -1 kcal/mol

Which “folding stability dG unfold” value [1] does the source give for “SAGGSLPADAEVTEVVEDPSKGVVTVKVTVRDSEGKVVEERTVVTPVEPVPPLSPENLKKNLLLTLLSAGGS [r16_697_JUSTAS]” here?
The value was 0.249 ± 0.12 kcal/mol.

And the “folding stability dG unfold” value [2]?
The value was -0.741 ± 0.94 kcal/mol.

What does the source list for “SAGGSLPVVDGPSDLVETTVYEDGTIEIKVERAEPPGVPTVRTLTITLEPPVGPPKVPPGNPKYLGSAGGSA [r2_368_JUSTAS]”?
folding stability dG unfold [1]: -1.08 ± 0.53 kcal/mol; folding stability dG unfold [2]: < -1 kcal/mol

For “SAGGSMTLTEVSYEGDKVVTTTTTFTPGAPALTSSTTTTPIPPVPLGPRPVIFFEPVSEMRPLALVSAGGSA [r2_332_JUSTAS]”, which “folding stability dG unfold” value [1] is on record?
The value was 0.628 ± 0.051 kcal/mol.

And the “folding stability dG unfold” value [2]?
The value was 0.034 ± 0.17 kcal/mol.

What does the source list for “SAGGSMTLTFRKPDTDVTSEKVTKPPGGPELVDLRITPPDGSGEKRTLTPEELAKEFGLSLEEILESAGGSA [r2_262_JUSTAS]”?
folding stability dG unfold [1]: -0.183 ± 0.31 kcal/mol; folding stability dG unfold [2]: < -1 kcal/mol
